Experimental data reported in PMC4665922, “Comparative assessment of native and heterologous 2-oxo acid decarboxylases for application in isobutanol production by Saccharomyces cerevisiae” (Biotechnology for Biofuels, 2015).

Key:
Assay in all cases: cells, lysate or membranes
Type in all cases: biochemical, Lactococcus lactis
[1] = substrate: CC[C@H](C)C(=O)C(=O)O; settings: cell extract of ammonium-grown cells, pH 7.0, 30 °C, 0.2 mM thiamine pyrophosphate, 5 mM MgCl2
[2] = substrate: CC(C)C(=O)C(=O)O; settings: cell extract of ammonium-grown cells, pH 7.0, 30 °C, 0.2 mM thiamine pyrophosphate, 5 mM MgCl2, cooperative, Hill equation
[3] = substrate: CC(C)CC(=O)C(=O)O; settings: cell extract of ammonium-grown cells, pH 7.0, 30 °C, 0.2 mM thiamine pyrophosphate, 5 mM MgCl2

B1: KivD (Lactococcus lactis subsp. lactis) (protein)
chain: MYTVGDYLLDRLHELGIEEIFGVPGDYNLQFLDQIISHKDMKWVGNANELNASYMADGYARTKKAAAFLTTFGVGELSAVNGLAGSYAENLPVVEIVGSPTSKVQNEGKFVHHTLADGDFKHFMKMHEPVTAARTLLTAENATVEIDRVLSALLKERKPVYINLPVDVAAAKAEKPSLPLKKENSTSNTSDQEILNKIQESLKNAKKPIVITGHEIISFGLEKTVTQFISKTKLPITTLNFGKSSVDEALPSFLGIYNGTLSEPNLKEFVESADFILMLGVKLTDSSTGAFTHHLNENKMISLNIDEGKIFNERIQNFDFESLISSLLDLSEIEYKGKYIDKKQEDFVPSNALLSQDRLWQAVENLTQSNETIVAEQGTSFFGASSIFLKSKSHFIGQPLWGSIGYTFPAALGSQIADKESRHLLFIGDGSLQLTVQELGLAIREKINPICFIINNDGYTVEREIHGPNQSYNDIPMWNYSKLPESFGATEDRVVSKIVRTENEFVSVMKEAQADPNRMYWIELILAKEGAPKVLKKMGKLFAEQNKS
notes: full-length ORF, codon optimised, no tag mentioned; TDH3 promoter plasmid pUDE336 in S. cerevisiae IME262 (pdc1 pdc5 pdc6 aro10 deleted); cell extract
Km [1]: 12.9 ± 2.87 mM | Vmax [1]: 0.05 µmol/min/mg | Vmax/Km [1]: 3.9 µL/min/mg | K0.5 [2]: 7.73 ± 1.62 mM | Vmax [2]: 0.03 µmol/min/mg | Vmax/Km [2]: 3.9 µL/min/mg | Km [3]: 2.42 ± 0.90 mM | Vmax [3]: 0.04 µmol/min/mg | Vmax/Km [3]: 17 µL/min/mg
